The text below walks through data of patent CN113817050A (WUHAN INST OF BIOLOGICAL PRODUCTS CO LTD, dated 2021).

For assay [1], the target named is SARS-CoV-2刺突S1亚基蛋白(Sino公司，货号:40591-V02H) (SARS-CoV-2 (2019-nCoV), UniProt P0DTC2 16-685).
Assay [2] deals with SARS-CoV-2 RBD结构域重组蛋白(Sino公司，货号40592-V05H) (SARS-CoV-2 (2019-nCoV), UniProt P0DTC2 319-541).
Assay [3] addresses T1, SARS-CoV-2刺突S1-His重组蛋白(Sino公司，货号:40591-V08H) (SARS-CoV-2 (2019-nCoV), UniProt P0DTC2 16-685).
T1 construct: domain: S1; also called S1蛋白; 刺突蛋白S1
Put plainly: ELISA, S1-His coated at 1.0 μg/mL, detection by goat anti-human IgG-HRP.

B1: 抗SARS-CoV-2的单克隆抗体1H8 (antibody, V domains shown)
VH: EVQLVESGGGLVQPGGSLRLSCAASEITVSSNYMNWVRQAPGKGLEWVSVIYSGGTTYYADSVKGRFTISRDNSENTLYLQMNSLRAEDTAVYYCARDLMEVGGMDVWGQGTTVTVSS
VL: DIVMTQSPSSLSASVGDRVTITCRASQGVSNYLAWYQQKPGKVPKLLIYAASTLQSGVPSRFSGSRSGTDFTLTISSLQPEDVATYYCQNYNSAPFAFGPGTKVEIK
notes: also called 人源抗SARS-CoV-2抗体1H8; 1H8抗体
A word on the IC50: it is the concentration at which inhibition is half-maximal. A lower IC50 goes with higher potency. As usually defined, the EC50 is the concentration at which the effect is half-maximal. B1: the IC50 in assay [1] was found to be 5.76 nM; in assay [2] it was 3.6 nM. Further, the EC50 was determined as 0.035 nM in assay [2] and 0.054 nM in assay [3].
